The record followed here is PMC12148503, “Molecular Basis of Interchain Disulfide Bond Formation in BMP-9 and BMP-10” (Journal of molecular biology, 2025).

The target of assay [1] is BMP-9 disulfide-linked dimer (wild-type growth factor) (human) (UniProt Q9UK05).
Assay [2] deals with BMP-9 monomer (cysteinylated BMP-9 growth factor) (human) (UniProt Q9UK05).
Assay [3] deals with BMP-10 monomer (cysteinylated BMP-10 growth factor) (human) (UniProt O95393).
Assay [4] deals with BMP-10 disulfide-linked dimer (growth factor) (human) (UniProt O95393).
The target of assay [5] is T1, Pro-(X)-BMP-10 R353K, O95393.
T1 chain: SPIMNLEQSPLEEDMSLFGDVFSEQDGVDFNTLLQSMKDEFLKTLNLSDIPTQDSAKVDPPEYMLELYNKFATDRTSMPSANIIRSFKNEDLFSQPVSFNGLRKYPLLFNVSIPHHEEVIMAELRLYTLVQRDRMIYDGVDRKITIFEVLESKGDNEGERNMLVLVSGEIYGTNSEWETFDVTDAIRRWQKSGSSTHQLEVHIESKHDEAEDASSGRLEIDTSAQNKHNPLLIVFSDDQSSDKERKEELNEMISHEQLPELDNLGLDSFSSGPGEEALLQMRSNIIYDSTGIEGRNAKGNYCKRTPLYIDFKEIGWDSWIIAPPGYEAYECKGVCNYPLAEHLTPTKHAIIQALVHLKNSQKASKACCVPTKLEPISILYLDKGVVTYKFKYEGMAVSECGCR
Briefly: SDS-PAGE densitometry. Conditions: chain shown with the change; IMAC column purified Pro-BMP-10.

“BMP-9 disulfide-linked dimer (wild-type growth factor) (from UniProt Q9UK05 320-429) (ligand)” registered an EC50 of pSMAD1/5/9 (western blot) in serum-starved HUVECs treated for 45 min with BMP-9 disulfide-linked dimer, 0.001-1.62 ng/mL in assay [1] of 3.3 pM.
Consider “BMP-9 monomer (cysteinylated BMP-9 growth factor) (from UniProt Q9UK05 320-429) (ligand)”, for which, in assay [2], the EC50 of pSMAD1/5/9 (western blot) in serum-starved HUVECs treated for 45 min with BMP-9 monomer, 0.01-54 ng/mL was 124 pM.

B1: BMP-10 monomer (cysteinylated BMP-10 growth factor) (ligand)
chain: NAKGNYCKRTPLYIDFKEIGWDSWIIAPPGYEAYECRGVCNYPLAEHLTPTKHAIIQALVHLKNSQKASKACCVPTKLEPISILYLDKGVVTYKFKYEGMAVSECGCR
modifications: cysteinylated (+119 Da; the paper places it on the interchain cysteine)
The molecule B1 gave an EC50 of pSMAD1/5/9 (western blot) in serum-starved HUVECs treated for 45 min with BMP-10 monomer, 0.01-54 ng/mL in assay [3] of 164 pM.

B2: BMP-10 disulfide-linked dimer (growth factor) (ligand)
chain: NAKGNYCKRTPLYIDFKEIGWDSWIIAPPGYEAYECRGVCNYPLAEHLTPTKHAIIQALVHLKNSQKASKACCVPTKLEPISILYLDKGVVTYKFKYEGMAVSECGCR
modifications: interchain disulfide
The molecule B2 showed an EC50 of pSMAD1/5/9 (western blot) in serum-starved HUVECs treated for 45 min with BMP-10 disulfide-linked dimer, 0.001-1.62 ng/mL in assay [4] of 5.9 pM.

B3: Pro-(X)-BMP-10, O95393 R353K (protein)
chain: SPIMNLEQSPLEEDMSLFGDVFSEQDGVDFNTLLQSMKDEFLKTLNLSDIPTQDSAKVDPPEYMLELYNKFATDRTSMPSANIIRSFKNEDLFSQPVSFNGLRKYPLLFNVSIPHHEEVIMAELRLYTLVQRDRMIYDGVDRKITIFEVLESKGDNEGERNMLVLVSGEIYGTNSEWETFDVTDAIRRWQKSGSSTHQLEVHIESKHDEAEDASSGRLEIDTSAQNKHNPLLIVFSDDQSSDKERKEELNEMISHEQLPELDNLGLDSFSSGPGEEALLQMRSNIIYDSTGIEGRNAKGNYCKRTPLYIDFKEIGWDSWIIAPPGYEAYECKGVCNYPLAEHLTPTKHAIIQALVHLKNSQKASKACCVPTKLEPISILYLDKGVVTYKFKYEGMAVSECGCR
For the molecule B3, the other: disulfide-linked dimer over monomer ratio in assay [5] turned out to be 0.9.
